Assay results published in paper PMC10035508.

Target: PTBP1 (hsPTBP1) (Homo sapiens) (UniProt P26599)
Experiment: EMSA
Details: EMSA in RBB: 10 mM sodium cacodylate pH 7.0, 100 mM NaCl, 1 mM MgCl2, 1 mM DTT, 0.1 ug/uL BSA, 0.1 ug/uL yeast tRNA, 0.4 U/uL RNasin, 1 U/uL heparin …

Sequence of PTBP1 (hsPTBP1) (Homo sapiens) (P26599 whole entry): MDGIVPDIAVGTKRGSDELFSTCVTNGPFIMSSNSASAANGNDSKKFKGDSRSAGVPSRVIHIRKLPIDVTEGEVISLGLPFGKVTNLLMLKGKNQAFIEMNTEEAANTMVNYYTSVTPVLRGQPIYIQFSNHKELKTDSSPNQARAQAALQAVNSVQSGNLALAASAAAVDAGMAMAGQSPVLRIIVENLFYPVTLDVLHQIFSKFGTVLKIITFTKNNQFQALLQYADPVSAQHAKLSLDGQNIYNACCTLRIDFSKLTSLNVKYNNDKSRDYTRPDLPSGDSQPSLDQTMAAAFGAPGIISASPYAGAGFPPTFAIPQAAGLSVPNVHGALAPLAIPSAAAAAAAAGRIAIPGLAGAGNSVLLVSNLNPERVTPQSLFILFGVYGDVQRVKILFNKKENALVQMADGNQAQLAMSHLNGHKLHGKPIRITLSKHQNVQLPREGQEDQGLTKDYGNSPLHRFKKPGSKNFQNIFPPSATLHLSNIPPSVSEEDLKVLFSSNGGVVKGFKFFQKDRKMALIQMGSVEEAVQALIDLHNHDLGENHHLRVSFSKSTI

For “GGGGUUCCUCCCCUCCAUCUUCCCACACCCAGUCACCAGCACUGUAUUUUCUGUCACCAAGACAAUGAUUUCUUGUUAUUGAGGCUGUUGCUUUUGUGGAUGUG [CPA1]”, the binding was “no binding”.
For “GGGUCUCCUUUCAGCCUGCUUCAGGAAUGAGCUUGUGGAGCCCCGGAGAGAAACUCCAAAACAAUCUGACGUCUUCUUUAGACAUUCCAAGCCCCCAAACCGAUCAGUGUAC [FRAGT7]”, the binding was “no binding”.
